From article PMC7031342, “REEP5 depletion causes sarco-endoplasmic reticulum vacuolization and cardiac functional defects” (Nature Communications, 2020)

B1: REEP5-EYFP (natural protein)
chain: not shown
notes: Receptor expression-enhancing protein 5 (REEP5), human (NM_005669.4), parent of the EYFP tagged truncation mutants; source: C2C12 myoblasts, transfected, in lysate
B2: CnVA-tagged (StrepII-6xHis, 3xFlag) REEP5 (natural protein)
chain: not shown
notes: Receptor expression-enhancing protein 5 (REEP5), human, subcloned from NM_005669.4 into pLD-puro-CnVA; also called CnVA-REEP5; source: HEK293, transfected, in lysate; nickel-His purification
B3: Δ1–36 REEP5-EYFP (domain or fragment)
chain: not shown
notes: REEP5, human (NM_005669.4), lacking residues 1-36; source: C2C12 myoblasts, transfected, in lysate
B4: REEP5-V5-6xHis (natural protein)
chain: not shown
notes: REEP5 was fused to a V5 tag followed by a 6xHis tag; source: HEK293, transfected, in lysate
B5: endogenous REEP5 (HEK293) (natural protein)
chain: not shown
notes: Receptor expression-enhancing protein 5 (REEP5), endogenous in HEK293 cells; source: endogenous, HEK293 lysate

Tests used:
[1] = target: the molecule itself; assay: immunoblot of oligomer bands after SDS-PAGE; C2C12 myoblasts transfected with EYFP tagged REEP5 and truncation mutants; SDS-resistant dimers
[2] = target: the molecule itself; assay: immunoblot of oligomer bands after SDS-PAGE; lysates and nickel-His eluate of transfected HEK293 cells; increasing DTT lowered the dimer band

Protein | stoichiometry N [1] | stoichiometry N [2]
B1 | 2 | –
B2 | – | 2
B3 | 2 | –
B4 | – | 2
B5 | – | 2
